Data from the Human Domainome abundance scans (Beltran et al. 2025).
± gives the uncertainty stated by the source.

Assay: abundance fitness (aPCA) (normalised: wild type 0, dead -1); higher = more abundant; growth selection in yeast, the domain comes from the species named
Conditions: Homo sapiens

Transcriptional activator Myb E151S, P10242
abundance fitness: -0.73 ± 0.088

Transcriptional activator Myb E151T, P10242
abundance fitness: -0.731 ± 0.12

Transcriptional activator Myb E151V, P10242
abundance fitness: -0.466 ± 0.074

Transcriptional activator Myb E151W, P10242
abundance fitness: -0.835 ± 0.078

Transcriptional activator Myb E151Y, P10242
abundance fitness: -1.12 ± 0.36

Transcriptional activator Myb E168A, P10242
abundance fitness: -0.287 ± 0.093

Transcriptional activator Myb E168C, P10242
abundance fitness: -0.464 ± 0.11

Transcriptional activator Myb E168D, P10242
abundance fitness: -0.133 ± 0.09

Transcriptional activator Myb E168F, P10242
abundance fitness: -0.574 ± 0.12

Transcriptional activator Myb E168G, P10242
abundance fitness: -0.668 ± 0.07

Transcriptional activator Myb E168H, P10242
abundance fitness: -0.548 ± 0.36

Transcriptional activator Myb E168K, P10242
abundance fitness: -0.279 ± 0.11

Transcriptional activator Myb E168L, P10242
abundance fitness: -0.419 ± 0.069

Transcriptional activator Myb E168M, P10242
abundance fitness: -0.533 ± 0.16

Transcriptional activator Myb E168N, P10242
abundance fitness: -0.492 ± 0.17

Transcriptional activator Myb E168P, P10242
abundance fitness: -0.833 ± 0.13

Transcriptional activator Myb E168Q, P10242
abundance fitness: -0.182 ± 0.13

Transcriptional activator Myb E168R, P10242
abundance fitness: -0.541 ± 0.067

Transcriptional activator Myb E168S, P10242
abundance fitness: -0.325 ± 0.084

Transcriptional activator Myb E168T, P10242
abundance fitness: -0.573 ± 0.32

Transcriptional activator Myb E168V, P10242
abundance fitness: -0.61 ± 0.077

Transcriptional activator Myb E168W, P10242
abundance fitness: -0.79 ± 0.1

Transcriptional activator Myb E168Y, P10242
abundance fitness: -0.657 ± 0.14

Transcriptional activator Myb E194A, P10242
abundance fitness: -0.055 ± 0.086

Transcriptional activator Myb E194C, P10242
abundance fitness: -0.226 ± 0.21

Transcriptional activator Myb E194D, P10242
abundance fitness: -0.001 ± 0.16

Transcriptional activator Myb E194F, P10242
abundance fitness: -0.168 ± 0.27

Transcriptional activator Myb E194G, P10242
abundance fitness: -0.135 ± 0.068

Transcriptional activator Myb E194H, P10242
abundance fitness: -0.403 ± 0.49

Transcriptional activator Myb E194K, P10242
abundance fitness: -0.067 ± 0.13

Transcriptional activator Myb E194L, P10242
abundance fitness: -0.192 ± 0.088

Transcriptional activator Myb E194M, P10242
abundance fitness: -0.229 ± 0.26

Transcriptional activator Myb E194N, P10242
abundance fitness: -0.316 ± 0.36

Transcriptional activator Myb E194P, P10242
abundance fitness: 0.022 ± 0.21

Transcriptional activator Myb E194Q, P10242
abundance fitness: -0.125 ± 0.13

Transcriptional activator Myb E194R, P10242
abundance fitness: -0.102 ± 0.089

Transcriptional activator Myb E194S, P10242
abundance fitness: -0.161 ± 0.1

Transcriptional activator Myb E194T, P10242
abundance fitness: -0.001 ± 0.12

Transcriptional activator Myb E194V, P10242
abundance fitness: -0.037 ± 0.095

Transcriptional activator Myb E194W, P10242
abundance fitness: -0.152 ± 0.13

Transcriptional activator Myb E194Y, P10242
abundance fitness: -0.174 ± 0.24

Transcriptional activator Myb E196A, P10242
abundance fitness: -0.069 ± 0.079

Transcriptional activator Myb E196C, P10242
abundance fitness: -0.13 ± 0.089

Transcriptional activator Myb E196D, P10242
abundance fitness: -0.056 ± 0.11

Transcriptional activator Myb E196F, P10242
abundance fitness: -0.247 ± 0.15

Transcriptional activator Myb E196G, P10242
abundance fitness: 0.007 ± 0.057

Transcriptional activator Myb E196H, P10242
abundance fitness: -0.196 ± 0.1

Transcriptional activator Myb E196I, P10242
abundance fitness: -0.34 ± 0.12

Transcriptional activator Myb E196K, P10242
abundance fitness: -0.064 ± 0.1

Transcriptional activator Myb E196L, P10242
abundance fitness: -0.03 ± 0.072

Transcriptional activator Myb E196M, P10242
abundance fitness: -0.084 ± 0.093

Transcriptional activator Myb E196N, P10242
abundance fitness: -0.022 ± 0.089

Transcriptional activator Myb E196P, P10242
abundance fitness: -0.114 ± 0.1

Transcriptional activator Myb E196Q, P10242
abundance fitness: -0.032 ± 0.12

Transcriptional activator Myb E196R, P10242
abundance fitness: -0.092 ± 0.046

Transcriptional activator Myb E196S, P10242
abundance fitness: -0.052 ± 0.064

Transcriptional activator Myb E196T, P10242
abundance fitness: -0.044 ± 0.1

Transcriptional activator Myb E196V, P10242
abundance fitness: -0.121 ± 0.092

Transcriptional activator Myb E196W, P10242
abundance fitness: -0.151 ± 0.067

Transcriptional activator Myb E196Y, P10242
abundance fitness: -0.306 ± 0.17

Transcriptional activator Myb E201A, P10242
abundance fitness: -0.094 ± 0.076

Transcriptional activator Myb E201C, P10242
abundance fitness: -0.314 ± 0.11

Transcriptional activator Myb E201F, P10242
abundance fitness: -0.521 ± 0.35

Transcriptional activator Myb E201G, P10242
abundance fitness: -0.076 ± 0.054

Transcriptional activator Myb E201H, P10242
abundance fitness: -0.034 ± 0.15

Transcriptional activator Myb E201I, P10242
abundance fitness: -0.156 ± 0.2

Transcriptional activator Myb E201K, P10242
abundance fitness: -0.272 ± 0.16

Transcriptional activator Myb E201L, P10242
abundance fitness: -0.158 ± 0.097

Transcriptional activator Myb E201M, P10242
abundance fitness: -0.078 ± 0.24

Transcriptional activator Myb E201N, P10242
abundance fitness: 0.095 ± 0.14

Transcriptional activator Myb E201P, P10242
abundance fitness: -0.221 ± 0.13

Transcriptional activator Myb E201Q, P10242
abundance fitness: -0.061 ± 0.14

Transcriptional activator Myb E201R, P10242
abundance fitness: -0.12 ± 0.066

Transcriptional activator Myb E201S, P10242
abundance fitness: -0.105 ± 0.1

Transcriptional activator Myb E201V, P10242
abundance fitness: -0.183 ± 0.078

Transcriptional activator Myb E201W, P10242
abundance fitness: -0.204 ± 0.08

Transcriptional activator Myb E201Y, P10242
abundance fitness: -0.377 ± 0.14

Transcriptional activator Myb G163A, P10242
abundance fitness: -0.329 ± 0.069

Transcriptional activator Myb G163C, P10242
abundance fitness: -0.468 ± 0.093

Transcriptional activator Myb G163D, P10242
abundance fitness: -0.356 ± 0.086

Transcriptional activator Myb G163E, P10242
abundance fitness: -0.25 ± 0.088

Transcriptional activator Myb G163F, P10242
abundance fitness: -0.89 ± 0.16

Transcriptional activator Myb G163K, P10242
abundance fitness: -0.405 ± 0.11

Transcriptional activator Myb G163L, P10242
abundance fitness: -0.581 ± 0.082

Transcriptional activator Myb G163M, P10242
abundance fitness: -0.484 ± 0.12

Transcriptional activator Myb G163P, P10242
abundance fitness: -0.19 ± 0.1

Transcriptional activator Myb G163R, P10242
abundance fitness: -0.422 ± 0.059

Transcriptional activator Myb G163S, P10242
abundance fitness: -0.406 ± 0.078

Transcriptional activator Myb G163T, P10242
abundance fitness: -0.595 ± 0.11

Transcriptional activator Myb G163V, P10242
abundance fitness: -0.537 ± 0.084

Transcriptional activator Myb G163W, P10242
abundance fitness: -0.602 ± 0.084

Transcriptional activator Myb G163Y, P10242
abundance fitness: -0.577 ± 0.46

Transcriptional activator Myb G175A, P10242
abundance fitness: -0.085 ± 0.058

Transcriptional activator Myb G175C, P10242
abundance fitness: -0.171 ± 0.1

Transcriptional activator Myb G175D, P10242
abundance fitness: 0.021 ± 0.079

Transcriptional activator Myb G175E, P10242
abundance fitness: 0.023 ± 0.079

Transcriptional activator Myb G175F, P10242
abundance fitness: -0.308 ± 0.12

Transcriptional activator Myb G175H, P10242
abundance fitness: 0.101 ± 0.17

Transcriptional activator Myb G175I, P10242
abundance fitness: -0.961 ± 0.35

Transcriptional activator Myb G175K, P10242
abundance fitness: -0.036 ± 0.095

Transcriptional activator Myb G175L, P10242
abundance fitness: -0.102 ± 0.077

Transcriptional activator Myb G175M, P10242
abundance fitness: -0.283 ± 0.098

Transcriptional activator Myb G175N, P10242
abundance fitness: -0.197 ± 0.18

Transcriptional activator Myb G175P, P10242
abundance fitness: -0.594 ± 0.11

Transcriptional activator Myb G175Q, P10242
abundance fitness: -0.315 ± 0.12

Transcriptional activator Myb G175R, P10242
abundance fitness: -0.281 ± 0.053

Transcriptional activator Myb G175S, P10242
abundance fitness: -0.13 ± 0.074

Transcriptional activator Myb G175V, P10242
abundance fitness: -0.409 ± 0.066
